In patent US20240156865A1 (BIONOXX, published 2024) one finds Kd, koff and kon data, which are given here for five molecules.

Read-outs that look alike come from different tables or passages of the source.

The Kd is the free concentration of one partner at which half of the binding sites on the other are occupied at equilibrium, for simple one-to-one binding. By koff is commonly meant the rate constant with which the complex falls apart. Usually kon stands for a measure of how fast the partners come together.

For assay [1], the target named is T1, A56-C-His (recombinant protein A56 with C-terminal His tag, produced in HEK293F cells) (vaccinia virus, UniProt P08714 17-279).
T1 construct: also called UTTA-C-His; UTTA
T1 chain: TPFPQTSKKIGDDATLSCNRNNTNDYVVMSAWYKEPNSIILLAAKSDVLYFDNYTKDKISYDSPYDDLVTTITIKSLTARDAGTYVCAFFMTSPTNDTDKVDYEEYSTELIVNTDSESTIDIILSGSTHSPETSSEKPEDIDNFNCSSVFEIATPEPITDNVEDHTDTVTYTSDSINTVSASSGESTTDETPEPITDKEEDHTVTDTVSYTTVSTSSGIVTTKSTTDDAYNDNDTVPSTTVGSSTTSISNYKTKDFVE
The assay is described as follows: OCTET (row 'KD (M) by OCTET'; the legend calls it SPR).

For assay [2], the target named is T1, A56-C-His (recombinant protein A56 with …). The assay is described as follows: ELISA (row 'KD (M) by ELISA'). In general terms: An ELISA detects its analyte on a solid surface through an enzyme-linked reagent.
For assay [3] the target is unchanged. Kind of assay: ELISA on coated A56 (100 ng), fit; R square 0.9942.
Assay [4] has the same target.
Assay [5] has the same target.
Assay [6] shares this target. Kind of assay: ELISA (row 'KD (M) by ELISA').
Assay [7] has the same target. The assay is described as follows: OCTET (row 'KD (M) by OCTET'; the legend calls it SPR).
For assay [8] the target is unchanged. The assay is described as follows: ELISA on coated A56 (100 ng), fit; R square 0.9969.
The target is the same in assay [9]. The assay is described as follows: OCTET (row 'KD (M) by OCTET'; the legend calls it SPR).
The target is the same in assay [10]. The assay is described as follows: ELISA on coated A56 (100 ng), fit; R square 0.9274.
Assay [11] shares this target. Kind of assay: ELISA (row 'KD (M) by ELISA').
For assay [12] the target is unchanged. Kind of assay: ELISA (row 'KD (M) by ELISA').
For assay [13] the target is unchanged. Kind of assay: OCTET (row 'KD (M) by OCTET'; the legend calls it SPR).
Assay [14] has the same target. Kind of assay: ELISA on coated A56 (100 ng), fit; R square 0.9953.
The target is the same in assay [15]. The assay is described as follows: OCTET (row 'KD (M) by OCTET'; the legend calls it SPR).
Assay [16] has the same target. Kind of assay: ELISA (row 'KD (M) by ELISA').
For assay [17] the target is unchanged. The assay is described as follows: ELISA on coated A56 (100 ng), fit; R square 0.9821.

B1: anti-A56 antibody Ab18 (antibody, V domains shown)
VH: QVQLVESGGGLVQPGKSLRLSCAASGFTFSTYGMTWVRQAPGKGLEWVSGISGGGSSTNYADSVKGRFIISRDNSNNTLYLQMNSLRAEDTAVYYCARWGVMLSFDYWGQGTPVTVSS
VL: DIQMTQSPSTLPASVGDRVTITCRASYSVSPWLAWYQQKPGKAPKLLIYKASTLESGVPSRFSGSGSGTEFTLTISSLQPDDFATYYCQQFNSYMMYTFGQGTKLEIK
notes: also called SA2043; A56-02C06
In the case of B1, the Kd in [1] is 0.196 nM; in assay [2], 0.026 nM; in assay [3] it was 0.026 nM; in assay [4], 0.196 nM. In assay [4], the koff is 1.96e-05 s⁻¹. In assay [5], the kon turned out to be 100000 M⁻¹ s⁻¹.

B2: anti-A56 antibody Ab01 (antibody, V domains shown)
VH: QMQLVQSGAEVKKPGSSVKVSCKASGGTFSSYAISWVRQAPGQGLEWMGGIIPIFGTANYAQKFQGRVTMTRDTSTSTVYMELSSLKSEDTAVYYCARFVFGSGTYLDSWGQGTLVTVSS
VL: not shown
notes: also called SA2026; A56-01A02
As to B2, the Kd in [6] came out at 0.029 nM; in assay [7], 0.492 nM; in assay [4] it was 0.492 nM; in assay [8] it was 0.029 nM. Further, in assay [4], the koff turned out to be 9.67e-05 s⁻¹. Besides, in assay [5], the on-rate (kon) came out at 196000 M⁻¹ s⁻¹.

B3: anti-A56 antibody Ab13 (antibody, V domains shown)
VH: QMQLVESGAEVKKTGSSVKVSCKASGDTLTYRFLHWVRQAPGQAPEWMGWITPFNDNTNYAQKFQDRVTITRDRSMSTAYMELSSLRSEDTAVYYCATGGGNNYYGMEVWGQGTPITVSS
VL: SYELTQPLSLSVSPGQTASITCSGDKLGDKFTSWYQQQPGQSPVLVIYQDAKRPSGIPERFSGSNSGSTATLTISGTQSMDEADYYCQAWDSSSVVFGGGTKLTVL
notes: also called SA2038; A56-02A02
Regarding B3, the Kd was found to be 0.739 nM in [9], 0.033 nM in [10], 0.033 nM in [11] and 0.739 nM in assay [4]. Moreover, the koff in assay [4] is 8.26e-05 s⁻¹. The kon in assay [5] is 112000 M⁻¹ s⁻¹.

B4: anti-A56 antibody Ab19 (antibody, V domains shown)
VH: QVQLVESGAEVRRPGSSVKVSCKTSGVTFSGYVLSWVRQAPGHGLEWMGRIIPLIDVENYAREFQGRMKITADKSTNTVYMELNNLRSEDTAVYYCAKSVVRGLDYYYYGFDVWGQGTTVTVSS
VL: SYELTQPPSLSVAPGKTARITCGGNNIGSKSVHWYQQKPGQAPRLVTYYDGNRPSGIPERFSGSNSGNTATLIISRVEAGDEADYYCQVWDSSSDQGVFGTGTKVTVL
notes: also called SA2044; A56-02C07
B4: the Kd in assay [12] came out at 0.044 nM; in assay [13] it was 0.438 nM; in assay [14], 0.044 nM; in [4], 0.438 nM. The koff in assay [4] was 2.47e-05 s⁻¹. In addition, in assay [5], the kon came to 56400 M⁻¹ s⁻¹.

B5: anti-A56 antibody Ab16 (antibody, V domains shown)
VH: QVQLQQSGPGLVKPSQTLSLTCAISGDSVSSNSAAWNWIRQSPSRGLEWLGRTYYRSKWYNDYAVSVKSRITINPDTSKNQFSLQLNSVTAVDTAVYYCAKSYAGPISYYYYGLDVWGQGTTVTVSS
VL: QSALTQPASVSGSPGQSVTISCTGTSSDIGRYNLVSWYQQHPGKAPKLMIYGGSKRPSGVSNRFSGSNSDNTASLTISGLRAEDEADYYCSSYASSSTPYVFGTGTKVTVL
notes: also called SA2041; A56-02B08
B5: the Kd in assay [15] is 0.228 nM; in assay [16], 0.024 nM; in [17], 0.024 nM; in [4] it was 2.28 nM. In addition, in assay [4], the koff stood at 0.000561 s⁻¹. In assay [5], the association rate constant (kon) was 246000 M⁻¹ s⁻¹.
